Experimental data as given in the supplement of paper PMC10567573.

B1: NR2F2 (parent)
chain: VAHVESLQEKSQCALEEYVRSQYP

Variants of: B1
Test: protein stability index of a GFP-peptide fusion (GPS, HEK-293T) (PSI 1-6); higher = more stable
Details: c terminus: a fixed tail appended
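Further: lentivirally expressed fusions sorted by FACS into six bins by GFP to DsRed ratio, PSI derived from sequencing read proportions per bin multiplied by bin number.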

Variant | protein stability index
RAHVESLQEKSQCALEEYVRSQYP [V1R] | 3.39
AAHVESLQEKSQCALEEYVRSQYP [V1A] | 3.29
WAHVESLQEKSQCALEEYVRSQYP [V1W] | 3.12
FAHVESLQEKSQCALEEYVRSQYP [V1F] | 3.03
QAHVESLQEKSQCALEEYVRSQYP [V1Q] | 3.89
SAHVESLQEKSQCALEEYVRSQYP [V1S] | 3.53
GAHVESLQEKSQCALEEYVRSQYP [V1G] | 3.79
VAHVESLQEKSQCALEEYVRAQYP [S21A] | 3.25
VAHVESLQEKSQCALEEYVRDQYP [S21D] | 3.77
VAHVESLQEKSQCALEEYVREQYP [S21E] | 3.77
VAHVESLQEKSQCALEEYVRNQYP [S21N] | 3.92
VAHVESLQEKSQCALEEYVRFQYP [S21F] | 2.56
VAHVESLQEKSQCALEEYVRMQYP [S21M] | 3.33
VAHVESLQEKYQCALEEYVRSQYP [S11Y] | 2.36
VAHVESLQEKAQCALEEYVRSQYP [S11A] | 4.05
VAHVESLQEKGQCALEEYVRSQYP [S11G] | 4.07
VAHVESLQEKCQCALEEYVRSQYP [S11C] | 3.37
VAHVESLQEKMQCALEEYVRSQYP [S11M] | 2.54
VAHVESLQEKFQCALEEYVRSQYP [S11F] | 1.78
VAHVESLQEKPQCALEEYVRSQYP [S11P] | 4.04
VHHVESLQEKSQCALEEYVRSQYP [A2H] | 2.98
VIHVESLQEKSQCALEEYVRSQYP [A2I] | 2.56
VMHVESLQEKSQCALEEYVRSQYP [A2M] | 3.03
VVHVESLQEKSQCALEEYVRSQYP [A2V] | 3.27

Variant | protein stability index
VYHVESLQEKSQCALEEYVRSQYP [A2Y] | 3.25
VKHVESLQEKSQCALEEYVRSQYP [A2K] | 3.48
VDHVESLQEKSQCALEEYVRSQYP [A2D] | 3.85
VAHVPSLQEKSQCALEEYVRSQYP [E5P] | 3.04
VAHVASLQEKSQCALEEYVRSQYP [E5A] | 3.27
VAHVGSLQEKSQCALEEYVRSQYP [E5G] | 2.9
VAHVMSLQEKSQCALEEYVRSQYP [E5M] | 2.69
VAHVYSLQEKSQCALEEYVRSQYP [E5Y] | 2.13
VAHVNSLQEKSQCALEEYVRSQYP [E5N] | 3.38
VAHVCSLQEKSQCALEEYVRSQYP [E5C] | 1.97
VAHVKSLQEKSQCALEEYVRSQYP [E5K] | 2.96
VAHVESLQEKSQCAHEEYVRSQYP [L15H] | 4.35
VAHVESLQEKSQCASEEYVRSQYP [L15S] | 4.33
VAHVESLQEKSQCAQEEYVRSQYP [L15Q] | 4.73
VAHVESLQEKSQCAGEEYVRSQYP [L15G] | 4.89
VAHVESLQEKSQCAKEEYVRSQYP [L15K] | 4.3
VAHVESLQEKSQCAMEEYVRSQYP [L15M] | 3.84
VAHVESLQEKSQCAEEEYVRSQYP [L15E] | 5.03
VAHVESLQEKSQCACEEYVRSQYP [L15C] | 4.01
VAHVESLQEKSQCALEEYVRSQYD [P24D] | 4.29
VAHVESLQEKSQCALEEYVRSQYE [P24E] | 3.94
VAHVESLQEKSQCALEEYVRSQYL [P24L] | 3.15
VAHVESLQEKSQCALEEYVRSQYF [P24F] | 2.62
VAHVESLQEKSQCALEEYVRSQYI [P24I] | 3.19

Variant | protein stability index
VAHVESLQEKSQCALEEYVRSQYY [P24Y] | 2.68
VAHVESLQEKSQCALEEYVRSQYG [P24G] | 3.72
VAHVESLQEKSQCALEEYVRSQYH [P24H] | 3.33
VAHVESLQEKSQCALEEYVRSQYT [P24T] | 3.5
VAHVESLQEKSQCALEEYVRSQYQ [P24Q] | 3.35
VAHVESLQAKSQCALEEYVRSQYP [E9A] | 2.55
VAHVESLQHKSQCALEEYVRSQYP [E9H] | 3.23
VAHVESLQWKSQCALEEYVRSQYP [E9W] | 2.27
VAHVESLQQKSQCALEEYVRSQYP [E9Q] | 2.62
VAHVESLQSKSQCALEEYVRSQYP [E9S] | 2.73
VAHVESLQCKSQCALEEYVRSQYP [E9C] | 1.85
VAHVESLQEKSQCALEEYVQSQYP [R20Q] | 4.3
VAHVESLQEKSQCALEEYVASQYP [R20A] | 3.49
VAHVESLQEKSQCALEEYVESQYP [R20E] | 4.51
VAHVESLQEKSQCALEEYVPSQYP [R20P] | 4.16
VAHVESLQEKSQCALEEYVWSQYP [R20W] | 2.56
VAHVESLQEKSQCALEEYVFSQYP [R20F] | 2.71
VAHVESLQEKSQCALEEYVCSQYP [R20C] | 3.87
VAHVESLQEKSQCALEEYVKSQYP [R20K] | 4.18
VAHVESLQEKSQCALEEYVNSQYP [R20N] | 3.14
VAHVESLQEKSQCALEEYVISQYP [R20I] | 3.36
VAHVESLQEKSQCALEEYYRSQYP [V19Y] | 3.56
VAHVESLQEKSQCALEEYIRSQYP [V19I] | 3.63
VAHVESLQEKSQCALEEYSRSQYP [V19S] | 4.08

Variant | protein stability index
VAHVESLQEKSQCALEEYTRSQYP [V19T] | 3.67
VAHVESLQEKSQCALEEYLRSQYP [V19L] | 3.17
VAHVESLQEKSQCALEEYMRSQYP [V19M] | 3.65
VAHVESLQEKSQCALEEYDRSQYP [V19D] | 4.26
VAHVESLQEKSQCALEEYPRSQYP [V19P] | 4.73
VAHVESLQEKSQCALEEYNRSQYP [V19N] | 4.13
VAHVESLQEKSQCALEEYGRSQYP [V19G] | 3.39
VAHVESLQEKSQCALEEYFRSQYP [V19F] | 3.34
VAHVESLQEKSQCSLEEYVRSQYP [A14S] | 3.78
VAHVESLQEKSQCKLEEYVRSQYP [A14K] | 3.88
VAHVESLQEKSQCMLEEYVRSQYP [A14M] | 3.81
VAHVESLQEKSQCFLEEYVRSQYP [A14F] | 2.76
VAHVESLQEKSQCTLEEYVRSQYP [A14T] | 3.92
VAHVESLQEKSQCDLEEYVRSQYP [A14D] | 4.79
VAHVESLQEKSQCRLEEYVRSQYP [A14R] | 3.43
VAHVESLQEKSQCELEEYVRSQYP [A14E] | 4.68
VAHVESLQEKSQCLLEEYVRSQYP [A14L] | 2.88
VAHVESFQEKSQCALEEYVRSQYP [L7F] | 3.27
VAHVESSQEKSQCALEEYVRSQYP [L7S] | 4.29
VAHVESGQEKSQCALEEYVRSQYP [L7G] | 3.55
VAHVESCQEKSQCALEEYVRSQYP [L7C] | 3.81
VAHVESRQEKSQCALEEYVRSQYP [L7R] | 3.89
